Assay results as given in IntAct's records for PubMed 10373560.

B1: Membrane-associated tyrosine- and threonine-specific cdc2-inhibitory kinase (Homo sapiens), Q99640 (parent)
chain: MLERPPALAMPMPTEGTPPPLSGTPIPVPAYFRHAEPGFSLKRPRGLSRSLPPPPPAKGSIPISRLFPPRTPGWHQLQPRRVSFRGEASETLQSPGYDPSRPESFFQQSFQRLSRLGHGSYGEVFKVRSKEDGRLYAVKRSMSPFRGPKDRARKLAEVGSHEKVGQHPCCVRLEQAWEEGGILYLQTELCGPSLQQHCEAWGASLPEAQVWGYLRDTLLALAHLHSQGLVHLDVKPANIFLGPRGRCKLGDFGLLVELGTAGAGEVQEGDPRYMAPELLQGSYGTAADVFSLGLTILEVACNMELPHGGEGWQQLRQGYLPPEFTAGLSSELRSVLVMMLEPDPKLRATAEALLALPVLRQPRAWGVLWCMAAEALSRGWALWQALLALLCWLWHGLAHPASWLQPLGPPATPPGSPPCSLLLDSSLSSNWDDDSLGPSLSPEAVLARTVGSTSTPRSRCTPRDALDLSDINSEPPRGSFPSFEPRNLLSLFEDTLDPT

Variants of: B1
Settings: with ccnb1_human CCNB1, P14635
Chain of ccnb1_human CCNB1, P14635 (P14635 whole entry): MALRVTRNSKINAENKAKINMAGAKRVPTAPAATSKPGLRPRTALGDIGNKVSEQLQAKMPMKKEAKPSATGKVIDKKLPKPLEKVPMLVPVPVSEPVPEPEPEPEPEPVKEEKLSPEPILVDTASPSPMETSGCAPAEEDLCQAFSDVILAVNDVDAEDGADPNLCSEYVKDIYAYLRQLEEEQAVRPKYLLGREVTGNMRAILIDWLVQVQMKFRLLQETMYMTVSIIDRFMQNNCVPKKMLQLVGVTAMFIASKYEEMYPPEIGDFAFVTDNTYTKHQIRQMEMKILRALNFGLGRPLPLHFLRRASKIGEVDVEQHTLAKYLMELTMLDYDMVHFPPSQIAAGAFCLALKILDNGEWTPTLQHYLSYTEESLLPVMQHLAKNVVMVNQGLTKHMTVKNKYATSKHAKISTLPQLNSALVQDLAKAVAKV

| effect of a mutation on the interaction | Variant |
| --- | --- |
| decreasing interaction | MLERPPALAMPMPTEGTPPPLSGTPIPVPAYFRHAEPGFSLKRPRGLSRSLPPPPPAKGSIPISRLFPPRTPGWHQLQPRRVSFRGEASETLQSPGYDPSRPESFFQQSFQRLSRLGHGSYGEVFKVRSKEDGRLYAVKRSMSPFRGPKDRARKLAEVGSHEKVGQHPCCVRLEQAWEEGGILYLQTELCGPSLQQHCEAWGASLPEAQVWGYLRDTLLALAHLHSQGLVHLDVKPANIFLGPRGRCKLGDFGLLVELGTAGAGEVQEGDPRYMAPELLQGSYGTAADVFSLGLTILEVACNMELPHGGEGWQQLRQGYLPPEFTAGLSSELRSVLVMMLEPDPKLRATAEALLALPVLRQPRAWGVLWCMAAEALSRGWALWQALLALLCWLWHGLAHPASWLQPLGPPATPPGSPPCSLLLDSSLSSNWDDDSLGPSLSPEAVLARTVGSTSTPRSRCTPRDALDLSDINSEPPRGSFPSFEPAAALSLFEDTLDPT [R486A;N487A;L488A] |
